Here are results for one protein from US20150010920.

For this data set, the target named is EGFP-T/C1 (EGFP-E-III-F-172).

B1: protease type X (Sigma, St. Louis) (protein)
chain: ITGTSTVGVGRGVLGDQKNINTTYSTYYYLQDNTRGNGIFTYDAKYRTTLPGSLWADADNQFFASYDAPAVDAHYYAGVTYDYYKNVHNRLSYDGNNAAIRSSVHYSQGYNNAFWNGSQMVYGDGDGQTFIPLSGGIDVVAHELTHAVTDYTAGLIYQNESGAINEAISDIFGTLVEFYANKNPDWEIGEDVYTPGISGDSLRSMSDPAKYGDPDHYSKRYTGTQDNGGVHINSGIINKAAYLISQGGTHYGVSVVGIGRDKLGKIFYRALTQYLTPTSNFSQLRAAAVQSATDLYGSTSQEVASVKQAFDAVGVK
In the case of B1, the “optical change / cleavage (absorbance at 397 nm, SDS-PAGE, MALDI-MS)” value is “this sensor was not cleaved by thrombin and protease type X”.
